Key:
MS2 coat protein [1] = test: apparent KD of MS2 coat protein, switch ON state; designed switch direction (-1 OFF switch, 1 ON switch): -1; higher = weaker reporter binding; conditions: FMN input: 0 or 200 uM; Eterna round: R93 (includes R88 designs)
How it was run: (§1)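 Values are apparent KD, taken as the median for each design of fits to normalised binding curves from individual clusters. The designed RNA switches were transcribed on-chip from Illumina sequencing clusters and exposed to SNAP-549-labelled MS2 coat protein at twofold increasing amounts from 0.7 or 1.5 nM to 3 µM. Titration used 100 mM Tris-HCl pH 7.5, 80 mM KCl and 4 mM MgCl2, without or with constant ligand.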

MS2 coat protein [2] = test: apparent KD of MS2 coat protein, switch OFF state (with FMN for OFF switches, without FMN for ON switches); designed switch direction (-1 OFF switch, 1 ON switch): -1; higher = weaker reporter binding; conditions: FMN input: 0 or 200 uM; Eterna round: R93 (includes R88 designs)
How it was run: as §1

MS2 coat protein [3] = test: apparent KD of MS2 coat protein; designed switch direction (-1 OFF switch, 1 ON switch): 1; higher = weaker reporter binding
How it was run: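 Three titration conditions were used: no input, 200 uM small-molecule ligand, and an oligonucleotide input. In each, SNAP-549-labelled MS2 coat protein was raised from 0.7 or 1.5 nM, doubling, to 3 µM over designed RNA switches transcribed on Illumina chips by stalled E. coli RNA polymerase. Curve fits of normalised cluster fluorescence gave values whose per-design median over clusters is the apparent KD.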

[4] = input ligand: microRNA oligo, concentration not stated
[5] = Eterna round: R95, input ligand: FMN 200 uM
[6] = Eterna round: R95, input ligand: microRNA oligo, concentration not stated
[7] = Eterna round: R95, input ligand: none

Sequence | apparent KD of MS2 coat protein (MS2 coat protein [3]; input ligand: FMN 200 uM) | apparent KD of MS2 coat protein (MS2 coat protein [3]; [4]) | apparent KD of MS2 coat protein (MS2 coat protein [3]; input ligand: none) | further results
AAAAAAAGAGGAUAUACAUGAAAAAUAAAAAUGUAAAAAAAACAUGAGGAUCACCCAUGUAGAAGGCUUAAAAA [Ecx-I 62% 1] | – | – | – | apparent KD of MS2 coat protein (MS2 coat protein [1]): 24.6 nM; apparent KD of MS2 coat protein (MS2 coat protein [2]): 25.9 nM
AAAAAACAUGAGGAUCACCCAUGUAAGGAUAUCGUGCAGAAAAAAAAAAAAAACUGCACGAGAAGGUACAAGGA [Brourd - Exclusion 1 - Sub 1] | – | – | – | apparent KD of MS2 coat protein (MS2 coat protein [1]): 36.1 nM; apparent KD of MS2 coat protein (MS2 coat protein [2]): 62.7 nM
AAAAAACAUGAGGAUCACCCAUGUAAGGAUAUCUAAAAUAAAAGAAAAAUAAAGAAAAGGAGAAGGUACAUGCA [JL wbt mod 26] | – | – | – | apparent KD of MS2 coat protein (MS2 coat protein [1]): 32 nM; apparent KD of MS2 coat protein (MS2 coat protein [2]): 34.5 nM
UUGAAGAAUUAAGGAUAUUGAGUACAUAUGUUUAACAUGAGGAUCACCCAUGUGGGUUGCGGUAUCGAGAAGGUAAAUUACUAG [JL SSNG2 1.45] (Eterna round: R96, puzzle: Same State NG 2) | 91.2 nM | 76.1 nM | 155 nM | –
UUGAAGAAUUAAGGAUAUUGAUUACAUAUGUUUAACAUGAGGAUCACCCAUGUGGGUUGCGGUAUCGAGAAGGUAAAUUACUAG [JL SSNG2 1.47] (Eterna round: R96, puzzle: Same State NG 2) | 137 nM | 122 nM | 162 nM | –
UUGAAUAAUUAAGGAUAUCGAGUCAAGAUGUUAAACAUGAGGAUCACCCAUGUGGGUUGCGGUAUCGAGAAGGUAAAUAAUAAG [Mat - Same State NG 2 - JL mod - D56] (Eterna round: R96, puzzle: Same State NG 2) | 38.6 nM | 28.8 nM | 36.5 nM | –
UUGAUUAGAAAUUAACAUGAGGAUCACCCAUGUAUUGGAUCAGAGGAUAUGCAUGUUUGAUAGUAGCAGAAGGCUGAUGGUGGA [JR_SSNG3_Sub027] (Eterna round: R96, puzzle: Same State NG 3) | 68.3 nM | 44.2 nM | 45.8 nM | –
UUGCAGUCAGGUGAGGAUAUCAUGAGUUUAACAUGAGGAUCACCCAUGUGCUGCCUUGCAGCAUAUGAGAAGGCACCUGGCUGCU [JL-ss2-3.03 Brourd Mod] (puzzle: Same State 2) | – | – | – | apparent KD of MS2 coat protein (MS2 coat protein [3]; [5]): 132 nM; apparent KD of MS2 coat protein (MS2 coat protein [3]; [6]): 295 nM; apparent KD of MS2 coat protein (MS2 coat protein [3]; [7]): 535 nM
UUGCGCUGUCGAGAGGAUAUGCGGUGUUGGACAUGAGGAUCACCCAUGUUAGCGAUAGCAUUACGGUAGAAGGCUCUUCAGCUGC [salish99_ss2_r3_096] (puzzle: Same State 2) | – | – | – | apparent KD of MS2 coat protein (MS2 coat protein [3]; [5]): 23.4 nM; apparent KD of MS2 coat protein (MS2 coat protein [3]; [6]): 17 nM; apparent KD of MS2 coat protein (MS2 coat protein [3]; [7]): 21.9 nM
UUGCGGAAUUAAGGAUAUUGAGUACAUAUGUUUAACAUGAGGAUCACCCAUGUGGGUUGCGGUAUCGAGAAGGUAAAUUACUAC [salish99_SSNG2_r04_802] (Eterna round: R96, puzzle: Same State NG 2) | 130 nM | 88.8 nM | 105 nM | –
UUGCUUCUCGUAGGAUAUGUAGGAUAUUCCUACAUGAGGAUCACCCAUGUUCGCAUGGAAGAAGGACAGAAGGACGAUCACCCU [pwkr ssNG2 2FMN + 1F5.10] (Eterna round: R96, puzzle: Same State NG 2) | 330 nM | 234 nM | 271 nM | –
UUGGUGUAGAUACAGGAUAUGUUGCUCGUAACAUGAGGAUCACCCAUGUAUCUAUGAGAUUAAAUGCAGAAGGGUGCACACCACU [salish99_ss2_r3_087] (puzzle: Same State 2) | – | – | – | apparent KD of MS2 coat protein (MS2 coat protein [3]; [5]): 39.6 nM; apparent KD of MS2 coat protein (MS2 coat protein [3]; [6]): 341 nM; apparent KD of MS2 coat protein (MS2 coat protein [3]; [7]): 541 nM
UUGUUUAACGUAGGAUAUCGACCUACAUGAGGAUCACCCAUGUCUUUGUAUAGUUUUUUUUGUUACGAGAAGGACGUUUUGUAU [JR_SSNG2_Sub068] (Eterna round: R96, puzzle: Same State NG 2) | 68.6 nM | 140 nM | 170 nM | –
UUGUUUCGUCAUUAACAUGAGGAUCACCCAUGUAAAGAACCAGAGGAUAUGCAUGUUUGAUUGUAGCAGAAGGCUGAUUGUUGU [JR_SSNG3_Sub033] (Eterna round: R96, puzzle: Same State NG 3) | – | 42.7 nM | – | –
UUGUUUCGUCAUUAACAUGAGGAUCACCCAUGUAUCGUCUCAAAGGAUAUAUAUGCUUGUUUGCUAUAGAAGGUUGAUUGUUGU [JR_SSNG3_Sub093] (Eterna round: R96, puzzle: Same State NG 3) | – | 91.6 nM | – | –
UUGUUUUGAAAUUAACAUGAGGAUCACCCAUGUCGUGAGACAGAGGAUAUACAGGAAUGUAGGUAGUAGAAGGCUGUUUAGUGU [JR_SSNG3_Sub099] (Eterna round: R96, puzzle: Same State NG 3) | 99.4 nM | 95.6 nM | 142 nM | –

Sequence | apparent KD of MS2 coat protein (MS2 coat protein [3]; input ligand: FMN 200 uM) | apparent KD of MS2 coat protein (MS2 coat protein [3]; [4]) | apparent KD of MS2 coat protein (MS2 coat protein [3]; input ligand: none) | further results
UUGUUUUGUAAUUAACAUGAGGAUCACCCAUGUCUUGGCACAGAGGAUAUACAUGUUUGUUUGUAGUAGAAGGCUGUUUAUUGU [JR_SSNG3_Sub096] (Eterna round: R96, puzzle: Same State NG 3) | 128 nM | 116 nM | 198 nM | –
UUUACUUUCAUAGGAUAUCAUGCGAAAAUUGCGUGAGAAGGGUGAACACUGUCUUUCUAAGAGUACAUGAGGAUCACCCAUGUA [SameState NG1 #65] (Eterna round: R96, puzzle: Same State NG 1) | 113 nM | 102 nM | 131 nM | –
UUUACUUUCAUAGGAUAUCAUGCGAAAAUUGCGUGAGAAGGGUGAAUACUGUCUUUCUAAGAGUACAUGAGGAUCACCCAUGUA [SameState NG1 #64] (Eterna round: R96, puzzle: Same State NG 1) | 56.9 nM | 45.8 nM | 51.2 nM | –
UUUAGAUAGCGAGGAUAUCGCGAGGAUCACCCGUGAGAAGGCGCAGAGCCGAGGAUCACCCGGCUGAUCCUGAGAAGGAGGUCA (Eterna round: R96, puzzle: Same State NG 1) | 92.3 nM | 155 nM | 245 nM | –
UUUAGAUCGCGAGGAUAUCGCGAGGAUCACCCGUGAGAAGGCGCAGAGCCGAGGAUCACCCGGCUGAUCCUGAGAAGGAGGUCA (Eterna round: R96, puzzle: Same State NG 1) | 91.7 nM | 206 nM | 250 nM | –
UUUAGUUGCGCGCAGGAUAUGUAUUAAUAUACAUGAGGAUCACCCAUGUGAGAUCGAAUAGAUCUGCAGAAGGGCGAAUCGCGAC [Laonerce - 27] (puzzle: Same State 2) | – | – | – | apparent KD of MS2 coat protein (MS2 coat protein [3]; [5]): 52.7 nM; apparent KD of MS2 coat protein (MS2 coat protein [3]; [6]): 361 nM; apparent KD of MS2 coat protein (MS2 coat protein [3]; [7]): 772 nM
UUUAGUUGCGGGCAGGAUAUGUAUUAAAAUACAUGAGGAUCACCCAUGUGAGACCAUAAAGGUCUACAGAAGGGCCAAUCGCGAC [Laonerce - 19] (puzzle: Same State 2) | – | – | – | apparent KD of MS2 coat protein (MS2 coat protein [3]; [5]): 14.9 nM; apparent KD of MS2 coat protein (MS2 coat protein [3]; [6]): 89 nM; apparent KD of MS2 coat protein (MS2 coat protein [3]; [7]): 88.1 nM
UUUAGUUGCGGGCAGGAUAUGUAUUAAAAUACAUGAGGAUCACCCAUGUGAGAUCAUAAAGAUCUACAGAAGGGCCAAUCGCGAC [Laonerce - 18] (puzzle: Same State 2) | – | – | – | apparent KD of MS2 coat protein (MS2 coat protein [3]; [5]): 13.4 nM; apparent KD of MS2 coat protein (MS2 coat protein [3]; [6]): 69.4 nM; apparent KD of MS2 coat protein (MS2 coat protein [3]; [7]): 91.6 nM
UUUAGUUGCGGGCAGGAUAUGUAUUAAAAUACAUGAGGAUCACCCAUGUGAGGUCAUAAAGACCUGCAGAAGGGCCAAUCGCGAC [Laonerce - 17] (puzzle: Same State 2) | – | – | – | apparent KD of MS2 coat protein (MS2 coat protein [3]; [5]): 11.5 nM; apparent KD of MS2 coat protein (MS2 coat protein [3]; [6]): 86.8 nM; apparent KD of MS2 coat protein (MS2 coat protein [3]; [7]): 48.3 nM
UUUAUAUUCAGAGGAUAUUGAUGUUGUAUUUUACAAGAAGGCUGAUUGUUUUGUAAUGUUAUUAAACAUGAGGAUCACCCAUGU [JR_SSNG1_Sub013] (Eterna round: R96, puzzle: Same State NG 1) | 19.7 nM | 22.5 nM | 27.3 nM | –
UUUCUACAUGAGGAUCACCCAUGUCAACAAAGUCGAGGAUAUGGGCAUAUUAUCUUAUUUCCAGAAGGCGAUUUCU [salish99_ss1_r3_092] (puzzle: Same State 1) | – | – | – | apparent KD of MS2 coat protein (MS2 coat protein [3]; [6]): 101 nM
UUUGCAUGACGAGGAUAUCAUUUAUUUCUUGAUUGAGAAGGCGUUCUUUUUAAUACCUAACAUGAGGAUCACCCAUGUGACAGU [JR_SSNG1_Sub047] (Eterna round: R96, puzzle: Same State NG 1) | – | 13.1 nM | – | –
UUUGCAUGACGAGGAUAUCAUUUAUUUCUUGAUUGAGAAGGCGUUCUUUUUACUACCUAACAUGAGGAUCACCCAUGUGACAGU [JR_SSNG1_Sub048] (Eterna round: R96, puzzle: Same State NG 1) | – | 11.3 nM | – | –
UUUGGGUGGCUGGAGGAUAUUCUUGUGGUUACAUGAGGAUCACCCAUGUGUCGCGCGGUACGCGAGGAGAAGGCUGGCGGCCGUU (puzzle: Same State 2) | – | – | – | apparent KD of MS2 coat protein (MS2 coat protein [3]; [6]): 223 nM
UUUUUGUUCCGAGGAUAUCCUUUUUUCUUACAUGAGGAUCACCCAUGUAAAGGGAUUGAGUUGUAGGAGAAGGCGGUUUUGUUU [JR_SSNG2_Sub061] (Eterna round: R96, puzzle: Same State NG 2) | 16.4 nM | 26.1 nM | 26.2 nM | –

Reference: the supplement of paper PMC9170038
